This note sets out measurements from patent publication US20140056918A1 (Novo Nordisk, published 2014).

Experiment [1] addresses T1, Human OSCAR-ECD (recombinant extracellular domain of human OSCAR) (human, UniProt Q8IYS5 19-218).
T1 construct: also called OSACAR-ECD
T1 chain: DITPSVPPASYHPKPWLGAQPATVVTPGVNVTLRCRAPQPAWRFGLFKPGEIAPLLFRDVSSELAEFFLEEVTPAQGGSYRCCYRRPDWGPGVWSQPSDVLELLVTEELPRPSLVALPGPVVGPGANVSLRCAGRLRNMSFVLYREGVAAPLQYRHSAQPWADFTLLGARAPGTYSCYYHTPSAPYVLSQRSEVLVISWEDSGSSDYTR
The experiment is described as follows: SPR (Biacore T100), mAb coupled or captured on chip, OSCAR-ECD injected, 1:1 fit. The method, then:
The kinetic parameters (kₐ, kd and KD) for the interaction were calculated using a 1:1 interaction Langmuir fitting model.
(In SPR one partner is held on a chip, and binding of the other changes the refractive index at the surface.)

For experiment [2], the target named is T1, Human OSCAR-ECD (recombinant …). The experiment can be described thus: SPR competition, 50 nM OSCAR-ECD premixed with mAb, over immobilised collagen I. The method, then: (§1) The experiment was performed using a Biacore T 100 instrument (GE Healthcare). Human collagen 1 (Sigma, # C5483) and human collagen 2 (Millipore #CC052) were diluted with 10 mM NaOAc, pH 4.5 and immobilized on a Biacore CM3 sensor chip (GE Healthcare) using amine coupling chemistry (GE Healthcare). Immobilization was performed according to the standard procedure, but at 5° C. in order to prevent aggregation collagens, with immobilized levels of ca 250 RU on flow cells (FC) 2 and 4. A blank immobilization was performed on FC 1 & 3, which were used as reference cells. HBS-EP buffer (10 mM HEPES, 150 mM NaCl, 3 mM EDTA, 0.05% Polysorbat P20, pH7.4) was used as running buffer for the immobilization. Buffer containing HBS-EP/+0.1% BSA was used for the competition assay. The competition experiment was performed at 5° C. at a flow rate of 50 μl/min. […] OSCAR was mixed with various concentrations of anti-OSCAR antibodies ranging from 0-10 μg/ml prior to injection. Binding curves were measured for 360 s followed by 240 s of dissociation. The chip surface was regenerated for 2×20 s with 10 mM glycine, pH 2.0 between assays.
(§2) Human collagen I and II were immobilized to the surface of a Biacore sensor chip by amine coupling. […] It was hypothesized that an antibody inhibiting binding of OSCAR to collagen would lead to a concentration-dependent loss of signal, whereas a non-inhibiting antibody would enhance the signal due to the increased mass of the OSCAR-antibody complex.

Experiment [3] has as its target T2, Human OSCAR (osteoclast-associated receptor), full length, on cells (human).
T2 construct: The signal peptide limits cannot be read from the text; also called hOSCAR; HEK-OSCAR cells
T2 chain: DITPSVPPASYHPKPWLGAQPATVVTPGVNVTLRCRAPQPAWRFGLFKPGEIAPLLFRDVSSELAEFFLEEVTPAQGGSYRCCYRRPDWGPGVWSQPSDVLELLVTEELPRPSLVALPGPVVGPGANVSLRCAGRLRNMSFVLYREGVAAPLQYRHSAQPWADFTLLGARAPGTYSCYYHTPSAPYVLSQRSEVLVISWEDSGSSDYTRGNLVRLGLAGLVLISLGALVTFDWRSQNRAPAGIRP
The experiment can be described thus: flow cytometry on primary human monocytes, donor #2. As for the experimental part:
(§3) Cell number and viability were determined using a Cedex cell counter. The cells were diluted in washing buffer (1×PBS (—Ca²⁺/—Mg²⁺)+5% FBS+0.1% Na-azide) to […]. In the case of monocytes, the cells were further blocked by adding 10 μl of a hFcR blocker (Miltenyi, #130-059-901) and incubated for 10 minutes at 4° C. 50 μl of cells (50.000 cells/well) were seeded into 96 well round-bottomed microtiter plates. Hybridoma supernatants or purified antibodies (in serial dilutions) were added to the cells at 50 μl/well. The isotype-matched purified irrelevant human mAb or mouse mAb served as negative controls (mouse IgG1, BD, #553452; mouse IgG2a, BD, #557353; mouse IgG2b, BD, #557352). […] Cells were washed in PBS, re-suspended in fixation buffer (1×PBS (—Ca²⁺/—Mg²⁺), pH7.2+1% formalin (B&B, #LAB96751.0500) and analysed by FACS flow cytometer. EC₅₀ values were calculated using a GraphPad Prism 5 software.

Experiment [4] deals with T2, Human OSCAR (osteoclast-associated …). The experiment is described as follows: cell-based or functional assay.
Experiment [5] has the same target. The experiment is described as follows: flow cytometry on primary human monocytes, donor #1. The method, then: as §3
(In flow cytometry, cells or beads pass a laser one at a time.)

The target in experiment [6] is T1, Human OSCAR-ECD (recombinant …). The experiment can be described thus: SPR competition, 50 nM OSCAR-ECD premixed with mAb, over immobilised collagen II. On the set-up: unit not given here. As for the experimental part:
as §1, §2

B1: 7F1A1 (antibody, V domains shown)
VH: QVQLQQSGAELVRPGTSVKVSCKASGYAFTNYMIEWVKKRPGQGLEWIGVINPGSGGTNYNEKFENKATLTADKSSSTAYMQLSSLTSDDSAVYFCARSLDFDGAWFAYWGQGTLVTVSA
VL: DIQMTQSPASLSVSVGETVTITCRASEKIYSNLAWYQQKQGKSPQLLVYAATNLADGVPSRFSGSGSGTQFSLKINSLQPEDFGSYYCQHFWGIPWTFGGGTKLEIKR
notes: Mouse anti-human OSCAR mAb; The heavy chain entry covers only VH-CH1 and the start of the hinge
With B1, the Kd – broadly, the equilibrium constant for the complex coming apart – in experiment [1] stood at 2.7 nM. For the same molecule, the “binding of OSCAR-ECD to collagen I with 10 µg/mL mAb” value in experiment [2] came to 145. The EC50 (commonly the concentration needed to bring the measured effect to its halfway point) in experiment [3] amounted to 0.12 nM. In experiment [4], the “IC50 (IL-8), ColI-induced IL-8 release from moDC, Donor 1” value (shortened to “IC50 … Donor 1”) was less than 0.1 nM; the “IC50 (IL-8), ColI-induced IL-8 release from moDC, Donor 2” value was less than 0.1 nM; the “IC50 (IL-8), ColI-induced IL-8 release from moDC, Donor 3” value (from here on “IC50 … Donor 3”) came to 0.1 nM; the “IC50 (IL-8), ColI-induced IL-8 release from moDC, Donor 4” value (“IC50 … Donor 4” for short) was 0.03 nM. For the same molecule, the EC50 in experiment [5] was determined as 1.21 nM. Besides, the “binding of OSCAR-ECD to collagen II with 10 µg/mL mAb” value (“binding of OSCAR-ECD to collagen II” for short) in experiment [6] worked out at 335.

B2: 7F21A1 (antibody, V domains shown)
VH: QVQLQQSGAELVRPGTSVKVSCRSSGYAFTNYLIEWIKQRPGQGLEWIGVITPGSGGTNYNENFKDKATLTADKSSNTAYMQLTSLTSDDSAVYFCARSFDYDGAWFAYWGQGTLVTVSA
VL: DIQMTQSPASLSVSVGETVTITCRASEKIYSNLAWYQQKQGKSPQLLVYAATNLADGVPSRFSGSGSGTQFSLKINNLQSEDFGSYYCQHFWGTPWTFGGGTKLEIKR
notes: as for B1
In the case of B2, the Kd in experiment [1] turned out to be 18 nM. Moreover, the “binding of OSCAR-ECD to collagen I with 10 µg/mL mAb” value in experiment [2] was found to be 144. This molecule also showed an EC50 in experiment [3] of 0.01 nM. Further, in experiment [4], the “IC50 (IL-8), ColI-induced IL-8 release from moDC, Donor 2” value is 0.02 nM; the “IC50 … Donor 3” value was found to be 0.64 nM; the “IC50 … Donor 4” value amounted to 0.11 nM. For the same molecule, it took 9.48 nM to reach a half-maximal effect in experiment [5] (EC50). Also, the “binding of OSCAR-ECD to collagen II” value in experiment [6] stood at 319.

B3: 7F10A1 (antibody, V domains shown)
VH: QVQLQQSGAELARPGASVKLSCKASGYTFTDNYINWVKQRTGQGLEWIGEIYPGSGNTYYNEKFKGKATLTADKSSSTAYMQLSSLTSEDSAVYFCARSANRYDRGDFDYWGQGTPLTVSS
VL: QILLTQSPAIMSASPGEKVTMTCSASSSVSYMHWYQQKPGSSPKPWIYDTSNLASGFPARFSGSGSGTSYSLIISSMEAEDAATYYCHQRSSYPYTFGGGTKLEIKR
notes: as for B1
B3: the Kd in experiment [1] amounted to 18 nM. Further, the “binding of OSCAR-ECD to collagen I with 10 µg/mL mAb” value in experiment [2] stood at 55. In addition, a half-maximal effect in experiment [3] (EC50) was put at 0.12 nM. For the same molecule, in experiment [4], the “IC50 … Donor 1” value stood at 0.49 nM; the “IC50 … Donor 3” value came out at 1.59 nM; the “IC50 … Donor 4” value turned out to be 2.06 nM. This molecule returned an EC50 in experiment [5] of 1.2 nM. Moreover, the “binding of OSCAR-ECD to collagen II” value in experiment [6] is 102.

B4: 7F14A1 (antibody, V domains shown)
VH: QVQLKESGPGLVAPSQSLSITCSVSGFSLTSYGVHWVRQPPGKGLEWLGVMWAGGSTNYNSALMSRLSISKDNSKSQVFLKMNSLQTDDSAMYYCALQKGYGNYFDYWGQGTTLTVSS
VL: QIVLTQSPAIMSASPGEKVTMTCSASSSVNYMHWYQQKSGTSPKRWIYDTSNLASGVPTRFSGSGSGTSYSLTISSMEAEDAATYYCQQWSSDPLTFGAGTKLELKR
notes: Mouse anti-human OSCAR mAb; also called 7F14A4
Regarding B4, the dissociation constant (Kd) in experiment [1] is 4.5 nM. The “binding of OSCAR-ECD to collagen I with 10 µg/mL mAb” value in experiment [2] is 56.3. Moreover, the EC50 in experiment [3] worked out at 0.55 nM; in experiment [5], 2.47 nM. In addition, in experiment [4], the “IC50 … Donor 1” value was determined as 0.23 nM. In addition, in experiment [4], the “IC50 … Donor 3” value stood at 0.62 nM. For the same molecule, the “binding of OSCAR-ECD to collagen II” value in experiment [6] was found to be 83.6.

B5: 7F6A1 (antibody, V domains shown)
VH: DVKLVESGGGLVKPGGSLKLSCAASGFTFSSYVMSWVRQTPEKRLEWVATISSGGSYTYYPDSVKGRFTISRDNAKNTLYLQMSSLKSEDTAMYYCTREGGNSPDYWGQGTTLTVSS
VL: ENVLTQSPAIMSASPGEKVTMTCSVSSSISYMHWYRQKSFTSPQLWIYDTSKLASGVPGRFSGSGSGISYSLTISSMEAEDVATYYCFQGSEYPLTFGAGTKLELKR
notes: as for B1
On to B5, for which, in experiment [1], the Kd came to 2.7 nM. The “binding of OSCAR-ECD to collagen I with 10 µg/mL mAb” value in experiment [2] is 19.2. In experiment [3], this molecule returned an EC50 of 0.14 nM. Also, in experiment [4], the “IC50 … Donor 3” value was 0.91 nM; the “IC50 (IL-8), ColI-induced IL-8 release from moDC, Donor 5” value came to 2.49 nM; the “IC50 (IL-8), ColI-induced IL-8 release from moDC, Donor 6” value was found to be 1.28 nM. It took 3.48 nM to reach a half-maximal effect in experiment [5] (EC50). Further, the “binding of OSCAR-ECD to collagen II” value in experiment [6] was found to be 19.3.
